Assay results: US20130315910A1 (Xencor, published 2013)
Numbering of substitutions follows the chain as printed. Names and notes keep the numbering of the source.

T1: mFcγRIIb (Mus musculus, UniProt P08101)
T1 construct: extracellular region, C-terminal His- and GST-tag; also called mouse FcγRII
T1 sequence (receptor extracellular region, looked up): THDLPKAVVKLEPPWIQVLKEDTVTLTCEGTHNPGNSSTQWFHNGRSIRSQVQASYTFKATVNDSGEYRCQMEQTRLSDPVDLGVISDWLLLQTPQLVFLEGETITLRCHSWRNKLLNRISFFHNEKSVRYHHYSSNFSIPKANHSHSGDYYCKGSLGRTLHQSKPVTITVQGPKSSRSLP

T2: cynoFcγRIIb (Macaca fascicularis, UniProt A0A140HDP4)
T2 construct: extracellular region, C-terminal His- and GST-tag; also called cynomolgus monkey FcγRIIb
T2 sequence (receptor extracellular region): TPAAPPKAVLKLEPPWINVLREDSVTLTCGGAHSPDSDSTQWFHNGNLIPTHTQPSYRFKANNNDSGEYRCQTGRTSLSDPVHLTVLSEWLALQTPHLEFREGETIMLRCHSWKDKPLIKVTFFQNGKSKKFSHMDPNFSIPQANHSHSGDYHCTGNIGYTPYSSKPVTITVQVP

T3: human FcγRIIb receptor protein (R&D Systems) (human, UniProt P31994 46-217)
T3 construct: Bought protein injected over captured antibody in Biacore; also called CD32b
T3 sequence (looked up): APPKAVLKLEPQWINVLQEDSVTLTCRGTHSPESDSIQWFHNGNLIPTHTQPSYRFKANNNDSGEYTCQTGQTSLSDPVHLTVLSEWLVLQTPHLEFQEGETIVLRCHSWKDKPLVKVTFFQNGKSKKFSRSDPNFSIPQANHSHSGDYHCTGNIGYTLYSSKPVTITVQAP

B1: S239D/H268D/L328Y (antibody, human IgG1, kappa)
heavy: EVQLVESGGGLVKPGGSLKLSCAASGYTFTSYVMHWVRQAPGKGLEWIGYINPYNDGTKYNEKFQGRVTISSDKSISTAYMELSSLRSEDTAMYYCARGTYYYGTRVFDYWGQGTLVTVSSASTKGPSVFPLAPSSKSTSGGTAALGCLVKDYFPEPVTVSWNSGALTSGVHTFPAVLQSSGLYSLSSVVTVPSSSLGTQTYICNVNHKPSNTKVDKKVEPKSCDKTHTCPPCPAPELLGGPDVFLFPPKPKDTLMISRTPEVTCVVVDVSDEDPEVKFNWYVDGVEVHNAKTKPREEQYNSTYRVVSVLTVLHQDWLNGKEYKCKVSNKAYPAPIEKTISKAKGQPREPQVYTLPPSREEMTKNQVSLTCLVKGFYPSDIAVEWESNGQPENNYKTTPPVLDSDGSFFLYSKLTVDKSRWQQGNVFSCSVMHEALHNHYTQKSLSLSPGK
light: DIVMTQSPATLSLSPGERATLSCRSSKSLQNVNGNTYLYWFQQKPGQSPQLLIYRMSNLNSGVPDRFSGSGSGTEFTLTISSLEPEDFAVYYCMQHLEYPITFGAGTKLEIKRTVAAPSVFIFPPSDEQLKSGTASVVCLLNNFYPREAKVQWKVDNALQSGNSQESVTEQDSKDSTYSLSSTLTLSKADYEKHKVYACEVTHQGLSSPVTKSFNRGEC
notes: HuAM4G7 anti-CD19 IgG1 (m1) with these Fc substitutions, EU index; copies: 2 + 2
B2: S239D/H268D/L328Y/I332E (antibody, human IgG1, kappa)
heavy: B1 heavy with I336E
light: B1 light
notes: as for B1
B3: S239D/H268E/L328Y (antibody, human IgG1, kappa)
heavy: B1 heavy with D272E
light: B1 light
notes: as for B1
B4: S239D/S267E/I332E (antibody, human IgG1, kappa)
heavy: B1 heavy with S271E, D272H, Y332L, I336E
light: B1 light
notes: as for B1
B5: S239D/L328F/I332E (antibody, human IgG1, kappa)
heavy: B1 heavy with D272H, Y332F, I336E
light: B1 light
notes: as for B1
B6: S239D/K326D/L328Y (antibody, human IgG1, kappa)
heavy: B1 heavy with D272H, K330D
light: B1 light
notes: as for B1
B7: S239D/S267A/L328Y (antibody, human IgG1, kappa)
heavy: B1 heavy with S271A, D272H
light: B1 light
notes: as for B1
B8: H268D/L328W/I332E (antibody, human IgG1, kappa)
heavy: B1 heavy with D243S, Y332W, I336E
light: B1 light
notes: as for B1
B9: S239D/L328Y/I332E (antibody, human IgG1, kappa)
heavy: B1 heavy with D272H, I336E
light: B1 light
notes: as for B1
B10: L234W/H268D/L328Y (antibody, human IgG1, kappa)
heavy: B1 heavy with L238W, D243S
light: B1 light
notes: as for B1
B11: S298L (antibody, human IgG1, kappa)
heavy: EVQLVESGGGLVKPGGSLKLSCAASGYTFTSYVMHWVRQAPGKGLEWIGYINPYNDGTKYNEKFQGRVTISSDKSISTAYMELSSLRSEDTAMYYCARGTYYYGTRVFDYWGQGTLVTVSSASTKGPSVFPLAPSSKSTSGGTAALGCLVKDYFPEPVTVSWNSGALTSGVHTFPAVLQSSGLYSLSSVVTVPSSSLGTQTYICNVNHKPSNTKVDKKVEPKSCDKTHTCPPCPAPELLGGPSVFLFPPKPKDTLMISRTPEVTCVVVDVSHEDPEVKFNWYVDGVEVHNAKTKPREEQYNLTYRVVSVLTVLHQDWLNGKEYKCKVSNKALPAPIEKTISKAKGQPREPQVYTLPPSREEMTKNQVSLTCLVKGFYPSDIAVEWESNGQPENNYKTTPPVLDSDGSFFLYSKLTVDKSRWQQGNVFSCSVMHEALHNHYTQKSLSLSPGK
light: B1 light
notes: HuAM4G7 anti-CD19 IgG1 (m1) with this Fc substitution, EU index; copies: 2 + 2
B12: S298M (antibody, human IgG1, kappa)
heavy: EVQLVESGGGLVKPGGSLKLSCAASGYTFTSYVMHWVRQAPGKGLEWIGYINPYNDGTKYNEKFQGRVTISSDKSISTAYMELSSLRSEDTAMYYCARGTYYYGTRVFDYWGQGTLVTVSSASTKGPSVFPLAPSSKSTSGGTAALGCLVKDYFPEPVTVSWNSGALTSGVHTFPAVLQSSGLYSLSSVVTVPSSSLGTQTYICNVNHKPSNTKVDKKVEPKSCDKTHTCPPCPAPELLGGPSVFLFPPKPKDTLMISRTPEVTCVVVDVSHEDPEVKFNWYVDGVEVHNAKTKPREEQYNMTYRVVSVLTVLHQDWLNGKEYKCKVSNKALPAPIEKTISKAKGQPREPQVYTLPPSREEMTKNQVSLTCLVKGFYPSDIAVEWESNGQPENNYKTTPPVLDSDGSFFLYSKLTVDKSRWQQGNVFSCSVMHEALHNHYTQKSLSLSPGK
light: B1 light
notes: as for B11
B13: H268D/A327D/L328Y (antibody, human IgG1, kappa)
heavy: B1 heavy with D243S, A331D
light: B1 light
notes: as for B1
B14: S239D/L328Y (antibody, human IgG1, kappa)
heavy: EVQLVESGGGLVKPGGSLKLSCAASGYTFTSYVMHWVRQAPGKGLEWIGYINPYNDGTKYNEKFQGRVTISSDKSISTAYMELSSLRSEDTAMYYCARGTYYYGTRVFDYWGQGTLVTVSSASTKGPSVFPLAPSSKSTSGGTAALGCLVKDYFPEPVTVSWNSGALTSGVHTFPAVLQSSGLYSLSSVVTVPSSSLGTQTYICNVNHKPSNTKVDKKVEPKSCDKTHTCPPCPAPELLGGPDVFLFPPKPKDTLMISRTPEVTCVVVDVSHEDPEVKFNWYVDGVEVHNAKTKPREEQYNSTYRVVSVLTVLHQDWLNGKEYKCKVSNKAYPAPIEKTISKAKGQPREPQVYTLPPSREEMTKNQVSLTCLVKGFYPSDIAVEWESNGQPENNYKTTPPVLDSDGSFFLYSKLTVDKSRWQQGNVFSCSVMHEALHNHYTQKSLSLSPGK
light: B1 light
notes: as for B1
B15: H268D/L328Y (antibody, human IgG1, kappa)
heavy: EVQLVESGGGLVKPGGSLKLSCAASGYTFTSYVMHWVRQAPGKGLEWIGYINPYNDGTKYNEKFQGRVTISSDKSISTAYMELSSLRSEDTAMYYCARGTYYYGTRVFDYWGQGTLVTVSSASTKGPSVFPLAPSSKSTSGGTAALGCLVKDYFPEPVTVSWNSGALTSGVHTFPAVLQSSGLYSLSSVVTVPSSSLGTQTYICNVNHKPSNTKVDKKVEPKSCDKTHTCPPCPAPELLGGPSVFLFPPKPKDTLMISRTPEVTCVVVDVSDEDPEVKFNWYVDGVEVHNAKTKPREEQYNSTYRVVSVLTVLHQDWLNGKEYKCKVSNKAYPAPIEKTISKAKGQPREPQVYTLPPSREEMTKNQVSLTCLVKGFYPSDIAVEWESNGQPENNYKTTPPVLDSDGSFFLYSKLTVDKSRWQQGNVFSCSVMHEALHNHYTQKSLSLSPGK
light: B1 light
notes: as for B1

Molecular target: T1, mFcγRIIb
Assay: SPR

| Binder | Fold vs WT IgG1 (Kd) [fold] |
| --- | --- |
| B1 | 48.6 |
| B2 | 3.04 |
| B3 | 26.5 |
| B4 | 1 |
| B5 | 2.09 |
| B6 | 131 |
| B7 | 46.5 |
| B8 | 4.26 |
| B9 | 1.7 |
| B10 | 5.92 |
| B11 | 0.208 |
| B12 | 0.549 |
| B13 | 18.7 |
| B14 | 11.5 |
| B15 | 2.79 |

Molecular target: T2, cynoFcγRIIb
Assay: SPR

| Binder | Fold vs WT IgG1 (Kd) [fold] |
| --- | --- |
| B1 | 22.2 |
| B2 | 9.1 |
| B3 | 5.87 |
| B4 | 10 |
| B5 | 3.09 |
| B6 | 10.2 |
| B7 | 6.46 |
| B8 | 7.46 |
| B9 | 5.12 |
| B10 | 4.63 |
| B11 | 0.04 |
| B12 | 2.85 |
| B13 | 3.58 |
| B14 | 2.13 |
| B15 | 2.92 |

Molecular target: T3, human FcγRIIb receptor protein (R&D …)
Assay: SPR

| Binder | Fold vs WT IgG1 [fold] | Kd [nM] | binding result |
| --- | --- | --- | --- |
| B1 | 24.4 | 60.1 | – |
| B2 | 54.1 | 27.1 | – |
| B3 | 21.7 | 67.7 | – |
| B4 | 124 | 11.8 | – |
| B5 | 8.34 | 176 | – |
| B6 | 13 | 113 | – |
| B7 | 19.8 | 74.1 | – |
| B8 | 39.8 | 36.9 | – |
| B9 | 7.41 | 198 | – |
| B10 | 5.92 | 248 | – |
| B11 | – | – | no binding |
| B12 | – | – | no binding |
| B13 | 3.49 | 420 | – |
| B14 | 5.56 | 264 | – |
| B15 | 1.91 | 767 | – |
